In the test the target is LRP1, endogenous on primary cortical neurons (mouse (endogenous in primary cortical neurons)) (UniProt Q91ZX7).
UniProt Q91ZX7, sequence (Q91ZX7 20-4545): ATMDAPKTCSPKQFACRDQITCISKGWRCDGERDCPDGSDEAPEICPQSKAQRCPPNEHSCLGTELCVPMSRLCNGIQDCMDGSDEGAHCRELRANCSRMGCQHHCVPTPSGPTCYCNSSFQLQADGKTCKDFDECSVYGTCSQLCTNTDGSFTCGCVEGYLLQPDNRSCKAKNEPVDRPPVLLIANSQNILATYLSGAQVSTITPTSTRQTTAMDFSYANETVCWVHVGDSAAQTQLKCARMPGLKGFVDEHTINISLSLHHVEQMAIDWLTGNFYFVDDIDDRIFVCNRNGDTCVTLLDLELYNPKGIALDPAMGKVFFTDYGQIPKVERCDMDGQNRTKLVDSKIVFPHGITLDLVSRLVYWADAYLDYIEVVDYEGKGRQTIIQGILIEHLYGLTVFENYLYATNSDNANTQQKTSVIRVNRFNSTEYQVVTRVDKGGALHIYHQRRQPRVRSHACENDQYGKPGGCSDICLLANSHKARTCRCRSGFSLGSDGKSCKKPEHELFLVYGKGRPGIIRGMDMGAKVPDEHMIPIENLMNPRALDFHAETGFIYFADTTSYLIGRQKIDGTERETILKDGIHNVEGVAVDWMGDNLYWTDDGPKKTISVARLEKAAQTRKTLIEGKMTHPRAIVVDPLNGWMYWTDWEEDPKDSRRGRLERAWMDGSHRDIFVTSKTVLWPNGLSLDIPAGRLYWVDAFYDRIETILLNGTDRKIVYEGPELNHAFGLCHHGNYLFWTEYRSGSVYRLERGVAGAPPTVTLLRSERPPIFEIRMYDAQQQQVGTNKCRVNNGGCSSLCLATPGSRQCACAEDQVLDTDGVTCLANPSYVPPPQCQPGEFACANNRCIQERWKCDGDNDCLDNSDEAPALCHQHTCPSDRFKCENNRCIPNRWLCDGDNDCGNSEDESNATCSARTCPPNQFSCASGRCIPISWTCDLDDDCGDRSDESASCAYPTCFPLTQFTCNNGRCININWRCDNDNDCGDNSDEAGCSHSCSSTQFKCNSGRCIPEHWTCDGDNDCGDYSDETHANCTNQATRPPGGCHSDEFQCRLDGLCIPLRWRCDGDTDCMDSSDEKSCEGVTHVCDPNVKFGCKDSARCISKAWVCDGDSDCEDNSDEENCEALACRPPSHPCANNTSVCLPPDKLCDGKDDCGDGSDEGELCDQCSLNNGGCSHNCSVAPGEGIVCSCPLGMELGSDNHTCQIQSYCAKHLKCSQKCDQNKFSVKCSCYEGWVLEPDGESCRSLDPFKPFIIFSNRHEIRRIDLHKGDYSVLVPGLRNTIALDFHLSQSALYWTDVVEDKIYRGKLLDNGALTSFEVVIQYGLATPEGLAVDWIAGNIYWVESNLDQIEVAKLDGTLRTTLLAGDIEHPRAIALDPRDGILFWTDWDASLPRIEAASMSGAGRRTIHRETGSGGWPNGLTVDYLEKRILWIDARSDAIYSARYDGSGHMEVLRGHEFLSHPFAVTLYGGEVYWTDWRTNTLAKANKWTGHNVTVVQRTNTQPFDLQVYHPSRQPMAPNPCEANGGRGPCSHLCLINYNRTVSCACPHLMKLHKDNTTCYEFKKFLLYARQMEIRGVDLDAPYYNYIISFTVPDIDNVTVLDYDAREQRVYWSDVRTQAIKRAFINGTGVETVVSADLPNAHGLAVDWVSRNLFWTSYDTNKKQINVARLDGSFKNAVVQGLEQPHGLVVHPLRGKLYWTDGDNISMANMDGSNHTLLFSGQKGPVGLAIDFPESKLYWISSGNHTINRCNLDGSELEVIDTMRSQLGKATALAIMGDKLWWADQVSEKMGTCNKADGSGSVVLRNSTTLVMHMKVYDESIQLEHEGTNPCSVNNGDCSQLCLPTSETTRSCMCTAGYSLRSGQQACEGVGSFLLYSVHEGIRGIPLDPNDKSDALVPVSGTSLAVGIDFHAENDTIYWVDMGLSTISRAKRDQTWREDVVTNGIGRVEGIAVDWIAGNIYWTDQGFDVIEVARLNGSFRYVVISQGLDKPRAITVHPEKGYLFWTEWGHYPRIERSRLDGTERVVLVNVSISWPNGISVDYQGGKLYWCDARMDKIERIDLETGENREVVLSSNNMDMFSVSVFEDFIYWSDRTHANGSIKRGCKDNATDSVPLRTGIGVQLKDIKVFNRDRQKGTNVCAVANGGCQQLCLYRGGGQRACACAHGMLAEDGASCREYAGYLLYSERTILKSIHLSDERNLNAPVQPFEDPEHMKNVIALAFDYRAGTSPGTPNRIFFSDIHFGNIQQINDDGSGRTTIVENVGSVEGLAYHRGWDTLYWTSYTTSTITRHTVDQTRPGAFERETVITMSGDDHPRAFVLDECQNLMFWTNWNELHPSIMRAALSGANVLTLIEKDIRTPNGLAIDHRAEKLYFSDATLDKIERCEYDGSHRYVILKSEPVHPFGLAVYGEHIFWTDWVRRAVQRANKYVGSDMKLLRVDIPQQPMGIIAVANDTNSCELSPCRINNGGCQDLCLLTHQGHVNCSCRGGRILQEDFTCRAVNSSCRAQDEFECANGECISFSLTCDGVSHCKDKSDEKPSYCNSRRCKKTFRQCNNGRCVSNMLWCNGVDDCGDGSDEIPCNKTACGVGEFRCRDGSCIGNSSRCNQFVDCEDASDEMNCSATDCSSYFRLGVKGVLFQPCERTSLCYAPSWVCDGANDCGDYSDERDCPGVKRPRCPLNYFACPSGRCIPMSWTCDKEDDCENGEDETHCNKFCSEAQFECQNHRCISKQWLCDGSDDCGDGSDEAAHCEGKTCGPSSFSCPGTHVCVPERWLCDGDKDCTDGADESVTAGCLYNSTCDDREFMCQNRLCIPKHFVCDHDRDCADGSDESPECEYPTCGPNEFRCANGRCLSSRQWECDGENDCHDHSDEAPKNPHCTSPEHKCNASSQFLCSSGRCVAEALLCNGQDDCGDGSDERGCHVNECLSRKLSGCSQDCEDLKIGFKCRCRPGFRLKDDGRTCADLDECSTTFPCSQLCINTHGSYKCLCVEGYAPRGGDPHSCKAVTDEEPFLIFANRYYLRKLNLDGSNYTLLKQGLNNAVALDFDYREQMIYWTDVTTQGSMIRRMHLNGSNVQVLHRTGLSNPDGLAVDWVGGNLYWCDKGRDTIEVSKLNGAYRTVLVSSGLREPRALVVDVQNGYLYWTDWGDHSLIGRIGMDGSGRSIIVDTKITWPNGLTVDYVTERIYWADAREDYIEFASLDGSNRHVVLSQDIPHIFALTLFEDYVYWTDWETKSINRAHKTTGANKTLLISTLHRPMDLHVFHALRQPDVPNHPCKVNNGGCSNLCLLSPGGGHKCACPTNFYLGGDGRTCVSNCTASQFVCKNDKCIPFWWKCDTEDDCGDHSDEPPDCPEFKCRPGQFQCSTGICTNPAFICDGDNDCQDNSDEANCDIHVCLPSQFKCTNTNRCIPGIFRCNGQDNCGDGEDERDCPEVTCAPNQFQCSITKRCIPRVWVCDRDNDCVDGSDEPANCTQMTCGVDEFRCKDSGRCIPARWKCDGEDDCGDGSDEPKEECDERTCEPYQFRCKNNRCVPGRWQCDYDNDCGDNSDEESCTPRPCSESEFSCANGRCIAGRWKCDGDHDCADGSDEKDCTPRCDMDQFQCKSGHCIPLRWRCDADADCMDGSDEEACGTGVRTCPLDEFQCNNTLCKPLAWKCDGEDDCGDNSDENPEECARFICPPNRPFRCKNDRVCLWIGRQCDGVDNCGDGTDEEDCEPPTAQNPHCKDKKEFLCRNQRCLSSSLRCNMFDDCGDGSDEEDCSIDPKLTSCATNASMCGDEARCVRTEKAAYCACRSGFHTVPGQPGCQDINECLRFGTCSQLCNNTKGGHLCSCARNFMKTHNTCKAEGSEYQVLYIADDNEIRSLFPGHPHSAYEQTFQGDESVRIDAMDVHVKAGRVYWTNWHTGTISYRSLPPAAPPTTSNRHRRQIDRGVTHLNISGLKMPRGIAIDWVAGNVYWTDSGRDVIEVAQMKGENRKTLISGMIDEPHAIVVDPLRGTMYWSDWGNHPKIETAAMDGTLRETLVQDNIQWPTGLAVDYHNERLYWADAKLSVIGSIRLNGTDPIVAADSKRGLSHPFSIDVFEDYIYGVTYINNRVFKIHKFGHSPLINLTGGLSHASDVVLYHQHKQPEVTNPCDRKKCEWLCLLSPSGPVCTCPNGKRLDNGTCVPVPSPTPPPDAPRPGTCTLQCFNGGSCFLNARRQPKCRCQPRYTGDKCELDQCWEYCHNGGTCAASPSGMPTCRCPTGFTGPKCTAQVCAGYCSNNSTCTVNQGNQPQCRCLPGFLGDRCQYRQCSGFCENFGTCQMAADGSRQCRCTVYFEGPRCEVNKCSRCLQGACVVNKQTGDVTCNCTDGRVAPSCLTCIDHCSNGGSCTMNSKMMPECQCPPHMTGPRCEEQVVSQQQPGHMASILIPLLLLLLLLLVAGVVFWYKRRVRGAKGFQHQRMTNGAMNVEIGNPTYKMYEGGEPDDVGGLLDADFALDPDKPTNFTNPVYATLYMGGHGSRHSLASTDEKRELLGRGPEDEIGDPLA

B1: Recombinant his-human PSAP (natural protein)
chain: GPVLGLKECTRGSAVWCQNVKTASDCGAVKHCLQTVWNKPTVKSLPCDICKDVVTAAGDMLKDNATEEEILVYLEKTCDWLPKPNMSASCKEIVDSYLPVILDIIKGEMSRPGEVCSALNLCESLQKHLAELNHQKQLESNKIPELDMTEVVAPFMANIPLLLYPQDGPRSKPQPKDNGDVCQDCIQMVTDIQTAVRTNSTFVQALVEHVKEECDRLGPGMADICKNYISQYSEIAIQMMMHMQPKEICALVGFCDEVKEMPMQTLVPAKVASKNVIPALELVEPIKKHEVPAKSDVYCEVCEFLVKEVTKLIDNNKTEKEILDAFDKMCSKLPKSLSEECQEVVDTYGSSILSILLEEVSPELVCSMLHLCSGTRLPALTVHVTQPKDGGFCEVCKKLVGYLDRNLEKNSTKQEILAALEKGCSFLPDPYQKQCDQFVAEYEPVLIEILVEVMDPSFVCLKIGACPSAHKPLLGTEKCIWGPSYWCQNTETAAQCNAVEHCKRHVWN
B1: the uptake of hPSAP (1 μg/ml) by primary cortical neurons in the presence of GST-RAP (50 μg/ml), immunoblot worked out at 75%.
